One may read the Km as the substrate concentration at which the rate is half of its maximum. What is called Vmax is the top rate of the reaction or transport when substrate is in excess. For orientation: kcat means the maximal rate divided by the concentration of active sites. By kcat/Km is commonly meant the turnover number divided by the Michaelis constant.

For this data set, the system named is T1, COc1ccc([C@@H]2CC(=O)c3c(O)cc(O)cc3O2)cc1O.
T1 construct: synthetic gene in pET-28a(+) (NcoI/XhoI), expressed in E. coli BL21(DE3); 365 residues
As to the kind of experiment: UPLC-MS product formation, Lineweaver-Burk. The data set is classed as biochemical, Angelica archangelica. The following applies: diosmetin formation (main product), Tris-HCl pH 7.5, 23 °C, 1 h, 5 mM 2-mercaptoethanol, 1 mM NADPH, 'separated protein', purification not described. An excerpt: UPLC-MS product formation, Lineweaver-Burk on […]

AnFNS I (Angelica archangelica), sequence (chain, as listed by the source): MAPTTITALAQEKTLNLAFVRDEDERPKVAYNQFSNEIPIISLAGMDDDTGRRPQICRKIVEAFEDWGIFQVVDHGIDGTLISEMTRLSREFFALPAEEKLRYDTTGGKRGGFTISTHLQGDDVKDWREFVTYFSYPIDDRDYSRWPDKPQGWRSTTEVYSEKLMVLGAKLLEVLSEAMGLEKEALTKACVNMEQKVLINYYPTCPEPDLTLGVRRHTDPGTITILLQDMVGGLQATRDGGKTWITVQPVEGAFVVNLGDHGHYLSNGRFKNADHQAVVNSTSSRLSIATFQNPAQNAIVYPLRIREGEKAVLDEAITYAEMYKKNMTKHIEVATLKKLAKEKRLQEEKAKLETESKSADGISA

For the substance AnFNS I (Angelica archangelica), the Km turned out to be 59.04 µM, the Vmax came out at 0.0366 µmol/min/mg, the kcat is 0.0249 s⁻¹ and the kcat/Km amounted to 423 M⁻¹ s⁻¹.

These data come from PMC9213739, “Substrates and Loaded Iron Ions Relative Position Influence the Catalytic Characteristics of the Metalloenzymes Angelica archangelica Flavone Synthase I and Camellia sinensis Flavonol Synthase” (Frontiers in Pharmacology, 2022).
